According to the supplement of paper PMC10126150:
± gives the standard deviation of the averaged measurements.

Test system: ATP
Experiment: switch fluorescence ratio, 500 uM ATP over buffer (Cy3 cluster intensity, sum of 5 cycles each) (fold (ratio)); higher = stronger signal-on switching upon ATP binding; sequences stand for … in TCGTCGGCAGCGTCAGATGTGTATAAGAGACAGTTTTTTTTTTTTTTTTTTTTTTTTT…TC
Settings: aptamer strand: ATP DNA aptamer (quencher-CACCTGGGGGAGTATTGCGGAGGAAGG + anchor), 100 nM annealed; ATP concentration: 500 uM
Procedure, shortened: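 Exposure to 500 uM ATP lasted 15 min at 22 °C before imaging, and a selection-buffer image was taken beforehand, for Cy3-labelled switching-strand clusters on a modified Illumina MiSeq flow-cell annealed to 100 nM quencher-labelled ATP aptamer. Five buffer/ATP cycles were run with NaOH stripping and re-annealing between them. The fluorescence ratio per cluster is summed target-cycle over summed buffer-cycle Cy3 intensity, averaged per switch-domain sequence. Clusters outside 100-1000 RFU were excluded.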

| Sequence | switch fluorescence ratio |
| --- | --- |
| CTGCAACAGA | 1.0455 ± 0.00015 |
| GAGGGTAATA | 1.01 ± 0.017 |
| AGTAAGGGGG | 0.998 ± 0.035 |
| GAGGTTGTG | 1.01 ± 0.025 |
| TCTTTGACAG | 1.02 ± 0.015 |
| GGGGGTGGCT | 1.027 ± 0.0069 |
| TATCGTGGGA | 1.01 ± 0.019 |
| ATGTGTGTGG | 1.03 ± 0.017 |
| GTTGTGCTGA | 1.02 ± 0.0085 |
| GCTGGTGCTT | 0.974 ± 0.022 |
| ATAGTTTGAC | 1.008 ± 0.0015 |
| TTCGTTACAG | 0.998 ± 0.027 |
| CGGGGCGAAG | 0.984 ± 0.038 |
| ATACAAATTT | 0.995 ± 0.047 |
| TTTCTTGGCG | 1 ± 0.03 |
| TGCTGCTCGG | 0.973 ± 0.031 |
| TTTTCATAAC | 1 ± 0.051 |
| GATCTAAAAG | 1.03 ± 0.017 |
| ATGATCGGAT | 0.977 ± 0.051 |
| TCAGAGTGTG | 0.989 ± 0.019 |
| CCCGGGTCTG | 1.04 ± 0.035 |
| TTGTTCCAAT | 0.989 ± 0.012 |
| CACTTATTCT | 0.973 ± 0.017 |
| ATGAGAATTA | 1.006 ± 0.0023 |
| AGTCATCGGG | 0.9728 ± 0.0011 |

| Sequence | switch fluorescence ratio |
| --- | --- |
| GCCTTACGGT | 1.04 ± 0.038 |
| TTTCTAGACC | 1.1 ± 0.12 |
| CGATGAGGGT | 1.01 ± 0.029 |
| TGCTGAGGGC | 1.01 ± 0.013 |
| ATAATAAGCT | 1.016 ± 0.0073 |
| TTTTATGTT | 0.978 ± 0.018 |
| AGGGAAATCT | 1.034 ± 0.01 |
| GTTAGTCTGT | 0.9907 ± 0.0052 |
| TTGTGAGCAA | 1.33 ± 0.11 |
| GTTTGGTATT | 1.01 ± 0.04 |
| TGAAAAAAT | 0.977 ± 0.051 |
| TTTCAATCTT | 1.36 ± 0.62 |
| TGATTATCTT | 1.047 ± 0.0097 |
| TCGTTATATT | 0.98 ± 0.015 |
| TGGGGCTTTG | 1.03 ± 0.026 |
| AATGTGGCTA | 1.01 ± 0.037 |
| ATAGTTATTG | 1.01 ± 0.022 |
| TTATGAAGAC | 1.025 ± 0.01 |
| GTTGCAGTTG | 1.07 ± 0.077 |
| GAATTAAACG | 1.02 ± 0.024 |
| TTTGTAATTT | 1.01 ± 0.021 |
| GAGGTGTTTT | 1.01 ± 0.06 |
| TTGGTTGTAA | 1.03 ± 0.059 |
| TGAGGGGGCT | 0.9862 ± 0.0034 |
| CATTAATGTA | 0.9977 ± 0.0033 |

| Sequence | switch fluorescence ratio |
| --- | --- |
| CGATGGTAGA | 1.03 ± 0.027 |
| ATATCCCTGT | 1.009 ± 0.0049 |
| AAACAGGGAT | 1 ± 0.032 |
| GGGTGGGCAG | 1.009 ± 0.0027 |
| GCGAGGGAGG | 1.02 ± 0.052 |
| GAAAAGTTTT | 0.969 ± 0.018 |
| ATGTGGCTTA | 0.989 ± 0.022 |
| AAGCTGGCGG | 0.9911 ± 0.0096 |
| GTGAGTTGCT | 1.002 ± 0.005 |
| ATGAGAGGTT | 0.994 ± 0.049 |
| CCGCTCGAAT | 3.36 ± 0.38 |
| TCTTTTTATA | 1.04 ± 0.017 |
| TAGTTTTTTG | 0.993 ± 0.053 |
| AGGATTTAGG | 0.983 ± 0.031 |
| ATTACGGAGA | 1.05 ± 0.069 |
| TTAATAGTTT | 0.988 ± 0.04 |
| GTTTAGAGTC | 1 ± 0.037 |
| TAGTGGGGGT | 1.01 ± 0.022 |
| CGCGTGGGGG | 1.03 ± 0.081 |
| GGGTGGAGGG | 0.973 ± 0.012 |
| TACCTTGGGC | 1.04 ± 0.046 |
| GAGGTGAAGA | 0.979 ± 0.046 |
| GTAAGACTAA | 0.997 ± 0.011 |
| TATGTGTGTT | 0.9873 ± 0.0062 |
| ATATGGATAC | 1.05 ± 0.045 |

| Sequence | switch fluorescence ratio |
| --- | --- |
| GACCTAAGGT | 0.988 ± 0.035 |
| GGGTGTAGTA | 0.9978 ± 0.0079 |
| AAGGCGTCGG | 0.993 ± 0.026 |
| GTTGCAGCCT | 0.981 ± 0.018 |
| TAGTAGGGGG | 0.9691 ± 0.0061 |
| TGGTAGGGAA | 0.982 ± 0.014 |
| GCGGGAGTCC | 1.13 ± 0.2 |
| CGTGGGGTTC | 0.983 ± 0.021 |
| TTAAGGTCGG | 1 ± 0.012 |
| TAGGGTTCGC | 1.06 ± 0.082 |
| GCGACGTTGC | 0.999 ± 0.036 |
| GGTTTTCAGT | 1.03 ± 0.045 |
| GTTTGGGGGC | 1.03 ± 0.043 |
| GACGATACGT | 1.14 ± 0.038 |
| AGATGTGAGC | 1.03 ± 0.059 |
| ATCGGGGCAC | 1.1 ± 0.11 |
| TTAGACGGGA | 1.026 ± 0.0043 |
| AAATGTTTTG | 1.03 ± 0.026 |
| TTTAACAGGT | 1.03 ± 0.023 |
| ACTGAGTTGT | 1.04 ± 0.038 |
| GCATCCGGCG | 1.04 ± 0.081 |
| AGCATGAACT | 1.07 ± 0.044 |
| AGAAAGAAAA | 0.993 ± 0.09 |
| TTGCATGGGA | 0.992 ± 0.018 |
| CGGGTTTCGC | 0.986 ± 0.014 |
